Measured values reported in PMC5765368, “Large-Scale Low-Cost NGS Library Preparation Using a Robust Tn5 Purification and Tagmentation Protocol”.
Blank lines part the entries; values can stand above or below the molecule they belong to.

How the values were obtained:
[1] = target: Tn5 transposase, hyperactive allele carrying the E54K and L372P mutations; experiment: SEC; untagged Tn5 on Superdex200 Increase 10/300 GL (Superdex200 10/300 GL at BZH) in 50 mM Tris pH 7.5, 800 mM NaCl, 0.2 mM EDTA, 2 mM DTT, 10% glycerol; last step of the purification
[2] = target: Tn5 transposase, hyperactive allele carrying the R27S, E54K and L372P mutations; experiment: as above
[3] = target: Tn5 transposase R27S,E54K,L372P (bacterial transposon Tn5 (expressed in …, UniProt Q46731 1-476, R27S;E54K;L372P)); experiment: ITC; ITC: 50 mM Tris pH 7.5, 800 mM NaCl, 0.1 mM EDTA, 5% glycerol, 25 C; 100 uM DNA titrated into 4 uM protein; details: protein: recombinant; tags: His6-Sumo3 removed by SenP2; one extra N-terminal Ser remains; chain copies: 2; 19 bp duplex with 5' overhang (14 nt for ME-A, 15 nt for ME-B)
[4] = target: Tn5 transposase E54K,L372P (hyperactive) (bacterial transposon Tn5 (expressed in …, UniProt Q46731 1-476, E54K;L372P)); experiment: as above; details: protein: recombinant; tags: His6-Sumo3 removed by SenP2; one extra N-terminal Ser remains; chain copies: 2; 19 bp duplex with 5' overhang (14 nt for ME-A, 15 nt for ME-B)

stoichiometry N [1]: 2
Molecule: Tn5 transposase, hyperactive allele carrying the E54K and L372P mutations (enzyme)

stoichiometry N [2]: 2
Molecule: Tn5 transposase, hyperactive allele carrying the R27S, E54K and L372P mutations (enzyme)

B1: annealed Tn5 linker oligonucleotide (mosaic end); Tn5ME-A/Tn5MErev or Tn5ME-B/Tn5MErev, not stated which (dsDNA)
DNA 1: TCGTCGGCAGCGTCAGATGTGTATAAGAGACAG
DNA 2: CTGTCTCTTATACACATCT
modifications: 5' phosphate on Tn5MErev
Kd [3]: 12.9 ± 2.1 µM
Kd [4]: 0.5 ± 0.09 µM
